Here are results for one substance from US8114638B2, “Arabinitol dehydrogenase from Neurospora crassa” (The Board of Trustees of the University of Illinois, priority 2007, dated 2012).

For orientation: Km means the concentration of substrate that gives half-maximal velocity.

Data set [1] in a line: Kinetic parameters of LAD from various source organisms. To be noted: for Specific activity: purified N. crassa LAD. The class given is biochemical. As to the method: Initial rates were determined using a Varian Cary 100 Bio UV-visible spectrophotometer (Varian) at 25° C. in 50 mM Tris (pH 8.0). […] Kinetic measurements with substrate L-arabinitol and cofactor NAD^+ were taken in a 5-by-5 matrix format, with substrate and cofactor concentrations varied from below their Km to 10-fold higher than their Km. The kinetic data were analyzed with a modified version of Cleland's program (Cleland, W. W. (1979) Statistical analysis of enzyme kinetic data, Methods Enzymol 63, 103-138.). Vmax and Km for both L-arabinitol and NAD^+ were obtained by fitting the data to a sequential ordered mechanism with NAD^+ binding first, based on the proposed mechanism for sorbitol dehydrogenase (Lindstad et al. (1992) The kinetic mechanism of sheep liver sorbitol dehydrogenase, Eur J Biochem 210, 641-647.) v=VmaxAB/(KiaKB+KAB+KBA+AB) (EQ. 1)

A short description of data set [2]: F59 mutant kinetic analysis, substrate L-arabinitol. The format is biochemical. To be noted: 25° C., 50 mM Tris pH 8.0, NAD+ 2 mM. The procedure:
(§1) Initial rates were determined using a Varian Cary 100 Bio UV-visible spectrophotometer (Varian) at 25° C. in 50 mM Tris (pH 8.0). […] This is the first reported detection of NADP^+ utilization by LAD, although it is still considered a strongly NAD^+-dependent enzyme. Kinetic measurements with substrate L-arabinitol and cofactor NAD^+ were taken in a 5-by-5 matrix format, with substrate and cofactor concentrations varied from below their Km to 10-fold higher than their Km. The kinetic data were analyzed with a modified version of Cleland's program (Cleland, W. W. (1979) Statistical analysis of enzyme kinetic data, Methods Enzymol 63, 103-138.). Vmax and Km for both L-arabinitol and NAD^+ were obtained by fitting the data to a sequential ordered mechanism with NAD^+ binding first, based on the proposed mechanism for sorbitol dehydrogenase (Lindstad et al. (1992) The kinetic mechanism of sheep liver sorbitol dehydrogenase, Eur J Biochem 210, 641-647.) v=VmaxAB/(KiaKB+KAB+KBA+AB) (EQ. 1)
(§2) Activity assays were run for three mutants of N. crassa LAD (F59A, F59S, and F59Y) to study the effect of mutation of this active site, putative substrate binding residue homologous to tyrosine in other SDHs. […]

Data set [3] in a line: F59 mutant kinetic analysis, substrate xylitol. The settings on record: 25° C., 50 mM Tris pH 8.0, NAD+ 2 mM. The class given is biochemical. The procedure: as §1, §2
Data set [4] in a line: F59 mutant kinetic analysis, substrate adonitol. The format is biochemical. The settings on record: 25° C., 50 mM Tris pH 8.0, NAD+ 2 mM. As to the method: as §1, §2
Data set [5] in a line: Temperature dependence of LAD activity. The format is biochemical. The procedure:
The optimal temperature of activity was determined by assaying LAD activities at temperatures ranging from 12 to 65° C. […] (FIG. 2A). At higher temperatures, the enzyme inactivates rapidly, and at lowered temperatures, the rate increases with temperature according to the Arrhenius equation. Utilizing the Arrhenius equation to fit the data from 12 to 30° C., the energy of activation for L-arabinitol oxidation by N. crassa LAD was determined to be 49 kJ/mol. […] Thermal inactivation of N. crassa LAD was studied by incubating at 50° C. in 50 mM Tris (pH 8.0), with samples removed at various times and assayed for activity in saturating substrate conditions.

A short description of data set [6]: Thermal inactivation and storage stability of LAD. The format is physicochemical.
Data set [7] can be described thus: pH rate profile of LAD activity. The class given is biochemical. To be noted: universal buffer, 2 mM NAD+, 200 mM L-arabinitol. The procedure: Activity was measured at pH values between 7.0 and 11.0 under saturating concentrations of NAD+ (2 mM) and L-arabinitol (200 mM) in a universal buffer (50 mM morpholineethanesulfonic acid (MES)/50 mM Tris/50 mM glycine). The pH range for N. crassa LAD activity was large, with >25% of the activity occurring with pH values of 7.0 to 11.0 (FIG. 2C). The pH optimum was around pH 9.5, and >60% of the activity remained in the pH span from 8.0 to 10.5.

Data set [8] is described as follows: Effect of GST-tag removal on specific activity. The class given is biochemical. To be noted: 4° C. overnight. From the text: N. crassa RNA purification, reverse-transcription PCR, cloning, and N. crassa LAD expression are described in this example. […] The reverse transcription-PCR product was subcloned into pGEX-4T-3 vector (Amersham Biosciences) using EcoRI and NotI restriction sites and was transformed into Escherichia coli BL21(DE3). This construct (pGEX-lad1) encoded N. crassa LAD as an N-terminal glutathione S-transferase (GST)-tagged fusion with a thrombin cleavage site. Cell lysates of isopropyl-β-D-thiogalactopyranoside (IPTG) induced cultures of these cells were prepared, analyzed by SDS-PAGE, and assayed for LAD activities. The construct produced soluble GST-tagged N. crassa LAD at ˜16% of the total soluble cellular proteins (FIG. 1), which was then purified in a single step with a GST-Bind kit (Novagen) according to manufacturer's protocol. […] Protein concentrations were determined by the Bradford method and by using an estimated extinction coefficient (San Diego Supercomputer Center Biology Workbench) of 35.3 mM-1 cm-1 at 280 nm with similar results. The purity of the protein was analyzed by an SDS-PAGE gel stained with Coomassie brilliant blue (FIG. 1). […]
To determine the effect of removal of the GST-tag, the purified LAD was incubated with and without thrombin at 4° C. overnight. […] It was determined that removal of the GST-tag enhanced activity by about 65%. […]

Consider “N. crassa LAD: NAD+-dependent L-arabinitol 4-dehydrogenase from Neurospora crassa, 363 residues, SEQ ID NO: 1, recombinantly expressed in E. coli”, for which the kcat in data set [1] (N. crassa LAD) was 1,206 min^−1. In addition, the Km was 16 mM in data set [1] (N. crassa LAD, read-out: Km,L-arabinitol); 0.174 mM in data set [1] (N. crassa LAD, read-out: Km,NAD+); 35 ± 3 mM in data set [4] (read-out: Km (mean ± SD)). Besides, the “specific activity relative to H. jecorina LAD purified from S. cerevisiae heterologous expression” value in data set [1] (greater) is ~20 fold. In addition, the figures for the Specific activity result in data set [1] and in data set [1] (listed as N. crassa) were “about 31 U/mg” and 31 U/mg, respectively. The results for the “kcat (mean ± SD)” value in data set [2], in data set [3] and in data set [4] were 1,210 ± 30 min^−1, 16.2 ± 0.667 s⁻¹ and 1,080 ± 30 min^−1, respectively. Also, the “energy of activation for L-arabinitol oxidation” value in data set [5] (Arrhenius fit of data from 12 to 30° C.) turned out to be 11.7 kcal/mol. Besides, the “optimum temperature of activity” value in data set [5] (assayed from 12 to 65° C., 200 mM L-arabinitol, 2 mM NAD+) is 45-55 °C. In addition, the “stability to repeated freezing (in words)” value in data set [6] was “quite stable and does not markedly lose activity when frozen repeatedly”. The activity retained in data set [6] (45° C., after 4 hr) is ~60%. Besides, in data set [6] (room temperature and 4° C.), the “storage stability (in words)” value is “retained activity at room temperature for longer than one month and at 4 °C for several months”. For the same substance, the “activity at pH values of 7.0 to 11.0” value in data set [7] is reported as > 25%. For the same substance, the “activity remaining in the pH span from 8.0 to 10.5” value in data set [7] is > 60%. Moreover, the pH optimum in data set [7] was ~9.5 pH. Moreover, the “increase of specific activity of thrombin-cleaved LAD over GST-tagged LAD” value in data set [8] is reported as “about 65%”.
